Assay: yeast display, Sf9 membrane polyspecificity reagent, FACS + sequencing; frameworks hold sequencing errors
How it was run: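 Galactose induction of a Saccharomyces cerevisiae BJ5465 synthetic nanobody display library ran 36–48 hours. The cells were then stained for 1 hour at 4 °C with 10% biotinylated, detergent-solubilized Sf9 membrane reagent, pulled down on streptavidin microbeads and FACS-sorted into low and high (top ~1%) gates on expression and reagent-binding fluorescence. Labels for polyreactivity follow the gate of origin.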

Row | Sequence | polyreactivity (PSR sort gate)
1 | QVQLQESGGGLEQAGGSLRLSCAASGYISEIGTMGWYRQAPGKEREFVATIVVGSTTNYADSVKGRFTISRDNAKNTVYLQPESGRYRGVLLRGWLLAVGKFNYWGQGTQETVSS | low polyreactivity
2 | QVQLVESGGGLVQAGGSHRLSCAASGQTVYYYPMGWYRQAPGKEREVVASISTGGNTYYADSVKGRFTISRDNAKNTVYLQMNSLKPEDTAVYYCAAGLYSWSGFASYNSAYGYWGQGTQVTVSS | low polyreactivity
3 | QVQLVESGGGLVQAGGSLRLSCAASGSIIRGYAIGWFRPAPGKERELVAAITSSGGSTYYADSVKGRFTISRDNAKNTVYLQMNSLKPEETAVYYCTKYRYSYKYNYWGQGTQVTVSS | high polyreactivity
4 | QVQLVESGGGLVQAGGSLRFSCAASGGTFQGNAMGWYRQAPGKEREFVATITRGGGSTYYADSVKGRFTISRDNAKNTVYLQMNSLKPEDTAVYYCNAKPSYYQRYNYWGQGTQVTVSS | high polyreactivity
5 | QVQLVESGGGLVQAGGSLRLSCAASGRTFTHYAMGWYRQAPGKERELVAAISGRGGNTYYADSVKGRFTISRDNAKNTVYLQMNSLKPEDTAVYYCNTAYVAKGYGYWGQGTQVTVSS | high polyreactivity
6 | QVQLVESGGGLVQAGGSLRLSCAASGITFFVYDMGWYRQAPGKERELVAAITWSGDSTYYADSVKGRFTISRDNAKNTVYLQMNSLKPEDTAVYYCAAQFDVYYSRQPYDYNRSGYWGQGTQVTVSS | low polyreactivity
7 | QVQLVESGGGLVQAGGSLRLSCAASGRIFKSNAMGWYRQAPGKEWELVASISRSGSTNYADSVKGRFTISRDNAKNTVYLQMNSLKPEDTAVYYCAKDPDAKGGGYDYWGQGTQVTVSS | low polyreactivity
8 | QVQLVESGGGLVQAGGSLRLSCAASGSTFSPYGMGWYRQAPGKERELVAAIRGRGGNTYYADSVKGRFTISRDNAKNTVYLQMNSLKPEDTAVYYCAAQSFAQYGWRYGDWGQGTQVTVSS | high polyreactivity
9 | QVQLVDSGAGLVQAGGSLRISCVPPDSTTQSKLGDRIHRRLGKKVTWLPVLTSRGVGSYYADSVKGRFTISRDNAKNTVYLQMNSLIPEDTAVYYCNARYEVFYRYDYWGQGTQVSVSS | low polyreactivity
10 | QVQLVESGGGLVQAGGSLRLSCAASGSTLWYNARGWYRDAPGKERELVAAITTSTDSTYYADSVKGRFTISRYNAKNTVYLQMNSLKPEDTAVYYCAAVLHLNGGGKAYDYWGLGTQVTVSS | low polyreactivity
11 | QVQLVDSGGGLVQAGGSLRLSCAASGRNFLWNAMGWDRQAPGKERELVAGISWRGSSTYYAVSVKGRFTISRDNAKNTVYLQMNSLKPEDTAVYYCAAQGRPYRGQRTGAYGYWGQGTQVTVSS | high polyreactivity
12 | QVQLVESGGGLVQAGGRLRLSCAASGRIFLFYDMGWYRQAPGKERELVATISFRRGSTYYADSVKGRFTISRDNAKNTVYLQMNSLKPEDTAVYYCAKQNKRGYSTSAYYYWGQGTQVTVSS | low polyreactivity
13 | QVQLVESGGGLVQAGGSLRLSCAASGYIFGYNAMGWYRQAPGKERELVAAINYSGTRTYYADSVKGRFTISRDNAKNTVYLQKNSLKPEDTAVYYCNAVGQLQYVSSDDYWGQGTQVTVSS | high polyreactivity
14 | QVQLVESGGGLVQAGGSLRLSCAASGGTFDSYVMGWYRQAPGKERELVAAITWSGGSTYYAESVKGRFTISRDNAKNTVYLQMNSLKPEDTAVYYCNNGGSTTYAYDYWGQGTQVTVSS | low polyreactivity
15 | QVQLVESGGGLVQAGGSLRISCAASGSIFVLYAMGWYRQAPGKERELVATITWSGDSTYYADSVKGRFTISRDNAKNTVYLQMNSLKPEDTAVYYCNKRIWDQYDWGQGTQVTVSS | low polyreactivity
16 | QVQLVESGGGLVQAGGSHGLSCAASGRTSEKNPMGWYRQAPGIERELVAGISWRGGSTYYADSVKGRFTISRDNAKNTVYLQMNSLKPEDTAFYYCARSGAFSGLDDSWGQGTQVTVSS | low polyreactivity
17 | QVQLVESGGGLVQAGGSLRLSCAASGRIFIGNAMGWYRQAPGKERELVAAISKRGGSTYYADSVKGRFTISRDNAKNTVYLQMNSLKPVDTAVYYCAVDGYVGVADYEYDNWGQGTQVTVSS | low polyreactivity
18 | QVQLVESGGGLVQAGGSLRLSCAASGRMIKYNTMGWYRQAPGKERELVAAISLSSGSGGGTRYADSVKGRFKISRDNAKNTVYLQMNSLKPEDTAVYYCAARHRYTNEYDYWGQGTQVTVSS | low polyreactivity
19 | QVQLVESGGGLVQAGGSLRLSCAASGRTFGGNAMGWYRQAPGKERELVAAISSGGSTNYADSVKGRFTISRDYAKNTVYLQMNSLKPEDSAVYYCAAGWYWWARYDYWGQGTQVTVSS | low polyreactivity
20 | QVQLVESVGGLVQAGGSLRLSCAASGSIFKSYAMGWYRQAPGKERELVAAITYRGGSTYYADSVKGRFTISRDNAKNTVYLQMNSLKPEDTAVYYCAKDQHRYYQVWGDYWGQGTQVTVSS | high polyreactivity
21 | QVQLVESGGGLVQAGGSLRLSCAASGITFRVYVMGWYRQAPGKERELVAAITSGTSTYYADSVKGRITISRDNAKNTVYLQMNRLKPEDTAVYYCAALIFYGDYIEYDYWGQGTQVTVSS | low polyreactivity
22 | QVQHVQSGGGLVQAGGSLRLSCAASGSTFPGYAMGWYRQDPGKEREFVAAISTSGGRTYYADSVKGRFTISRDNAKNTVYVQMNSLKPEDTAVYFCNADRYSQYSHSRYDYWGQGTQVTVSS | high polyreactivity

Row | Sequence | polyreactivity (PSR sort gate)
23 | QVQLVESGGGLLQAGGSLPLSCAASGRIFHQYAMGWYRQAPGKERELVAAISKTGTRTYYADSVKGRFTISRDNAKNTVYFQINSLKPDDTAVYYCNALYWTVYSREYDYWGQATQVTVSS | high polyreactivity
24 | QVLLVESGGGLVQAGGSLRLSCAASGRILYHYAMGWYRQAPGKERELVAAITRGGGTNYADSVKGRFTISRDNAKNTVYLQMNSLKPEDTAVYYCNADRFIVTRSRRGDYWGQGTQVTVSS | low polyreactivity
25 | QVQLVESGGGLVQAGGSLRLSCAASGLTFWDNAMGWYRQAPGKERELVAAIRGGGSTYYADSVKGRFTISRDNAKNTVYLQMNSLKPEDTAVYYCNAESYQDTLFGADNDYDYWGQGTQVTVSS | low polyreactivity
26 | QVQLVESGGGLVQAGGSLRLSCAASGITFRTYAMGWYRQAPGKERELVAAITRGDSTYYADSVKGRFTISRDNAKNSVYLQMNSLKPEETAVYYCAKESYIVNSRYYTGKMYYWGQGTQVTVSS | low polyreactivity
27 | QVQLVESGGGLVQAGGTLRLSCAASGFTFYSNTMGWYRQAPGKERELFAAITRTGVSTYYADSVKGRFTISRDNAKNTVYLQMNSLKPEDTAVYYCAALVKGQGTVHRYYYLGQGTQVTVSS | high polyreactivity
28 | QVQLVESGGGLVQAGGSLRLSCAGSGSTFYFYVMGWYRQAPGKDRELVAAITWSGGRTSYADSVKGRFTISRDNAKNTVYLQMNSLKPEDTAVYYCNTDGYPRLYIYDYWGQGTQVTVSS | low polyreactivity
29 | QVQLVESGGGLVQAGGSLRLSCASSGRIIINYDMGWYRQAPGKEIELVAAITWSTGSTYADSVKGRFTISRDNAKNTVYLQMNSLKPEDTAVYYCAAPWGQTDDRHQGGDYWGQGTQVTVSS | low polyreactivity
30 | QVQLVDSGGGLVQAGGSLRLSSAASGFIFYEYAMGWYRQAPGKEMELVAAITSGGSTDYADSVKGRFSSSRDNAKNTVYLQMNCMKPDDTAVYYCNADLLTGYYWYKYWGQGTQVSVSS | low polyreactivity
31 | QVQLVESGGGLVQAGGSLRLSCAASGSIFSKYVMGWYRQAPGKEMELVASITSGGRTNYADSVKGRFTISRDNAKNTVYLQMNSLKPEDTAVYYCAARALKTWYRSGVDYWGQGTQVTVSS | low polyreactivity
32 | QVQLVESGGGLVQAGGSLRLSCAASGRIFGVNAMGWYRPAPGKERELVAHIRSSGASTYYADSVKGRFTISRDNAKNTVYLQMNSLKPEDTAVYYCARDYFVDGPGYDYWGQGTQVTVSS | low polyreactivity
33 | QVQLVESGGGLVQEGGSLRLSCAASGLIFNRYDMGWYRQAPGKVTELVAAITSRGGRTYYADSVKGRFTISLDNAKTTVYLQMNSLKPEDTAVYYCNRTPTGSSLYGMDYWGQGTQVTVSS | high polyreactivity
34 | QVQLVESGGGLVQAGGSLRLSCAASGITFNSNAMGWYRQAPGKERELVATISNGGSTNYADSVKGRFTISRDNAKNTVYLQMNSLKPEDTAVYDCNTRRGSLSGLYVYSIQGYDYWGQGTQVTVSS | low polyreactivity
35 | QVQLVESGGGLVQAGGSLRLSCAASGRTFLYYAKGWYRQAPGKERELGAAISSGGSTNYADSVKGRFTISRDNAKNTVYLQMNSLKPEDTAVYYCNADYTSRDTSDVIYEYDYWGQGTQVTVSS | low polyreactivity
36 | QVQLVESGGGLVQAGGSLRLSCAASGRTFYNYAMGWYRQAPGKERELVASIRKNGGSTYYADSVKGRFTISRDNAKNTVYLQMNSLKPEDTAVYYCDARYWGISRIFPSKYDYWGQGTQVTVSS | high polyreactivity
37 | QVQLVESGGGLVQAGGSLRLSCAASGFTFKNYAMGWYRQAPGKEREFVATISSRGGSTYYADSVKGRFTISRDNAKNTVYLQMNSLKPEDTAVYYCATSRYLSRSSEYGYWGQGTQVTVSS | high polyreactivity
38 | QVQLVESGGGLVQAGGSLRLSCAASGLIFAIYAMGWYRKAPGKERELVAAISSGGGRTYYADSVKGRFTISRDNAKNTVYLQMNSLKPEDTAVYYCNARYRTVRSGGEYWVLMDYWGQGTQVTVSS | high polyreactivity
39 | QVQLVESGGGLVQAGGSLRLSCAASGFTFGYYAMGWYRQAPGKERELVAAISSSGGSTYYADSVKGRFTLSRDNAKNTVYLQMNSLKPEDTAVYYCAVVVFSRVYRYFTSDYWGQGTQVTVSS | high polyreactivity
40 | QVQLVESGGGLVQAGGSLRLSCAASGNIFSSNAMGWYRQAPGKERELVAAITRSGGSTYYADSVKGRFTISRDNSKKTVYLLMNSLKPEDTAFYYCAARHYPRNSWGYDYWGQGSQVTVSS | high polyreactivity
41 | QVQLVESGGGLVQAGGSLRLSCAASGRIFGYNAMGWYRQAPGKERELVAVITYSGGSTYYADSVKGRFTISRDNAKNTVYLQMNSLKPEDTAVYYCNARPIDRYSGSGKQWPDYYYWGQGTQVTVSS | low polyreactivity
42 | QVQLVESGGGIVQAGGSLRLSCAASGSTFDSYAMGWYRQAPGKERELVATISWTGSSTYYADSVKGRFTISRDNAKNTVYLQMNSLKPADTAVYYCATDQYYEYDYWGQGTQVTVSS | low polyreactivity
43 | QVQLVESGGGLVQAGGSLRLSCAASGSIFWSYAMGWYRQAPGKEREFVASITGSGGTTTYADSVKGRFTISRDNAKNTVYLQMNSLKPEDTAVYYCNARLHGWYHVYYIYDYWGQGTQVTVSS | low polyreactivity
